According to the supplement of paper PMC9170038:

System: MS2 coat protein
Experiment: apparent KD of MS2 coat protein; designed switch direction (-1 OFF switch, 1 ON switch): -1; higher = weaker reporter binding
In short: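 Designed RNA switches with common flanks were made on Illumina chips by stalled E. coli RNA polymerase. Titration with SNAP-549-labelled MS2 coat protein doubled from 0.7 or 1.5 nM up to 3 µM. Apparent KD is each design's median over clusters after curve-fitting normalised fluorescence.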

[1] = input ligand: microRNA oligo, concentration not stated
[2] = Eterna round: R95, input ligand: microRNA oligo, concentration not stated

Sequence	apparent KD of MS2 coat protein (input ligand: FMN 200 uM)	apparent KD of MS2 coat protein (input ligand: none)	apparent KD of MS2 coat protein [1]	apparent KD of MS2 coat protein (Eterna round: R95, input ligand: FMN 200 uM)	apparent KD of MS2 coat protein [2]	apparent KD of MS2 coat protein (Eterna round: R95, input ligand: none)
CGCGGAUGUAUAUGUCCGCACAUGAGGAUCACCCAUGUAAUAUAAGAUGAUAUUAAACAAAUUUUUGCUUGUCAGUU [Eternabot (L1) Solution 37] (Eterna round: R97, puzzle: Sensor, turn-off variant 1)	31 nM	38.2 nM				
ACAUGAGGAUCACCCAUGUCAGGUUGGUCCUCUCCGGCUGUUGAGGAUAUAGUCCGGUAUCCGCGCUAGAAGGUGAGGGCUGGC [Aenatbe mod 15] (Eterna round: R96, puzzle: Exclusion NG 3)	21.4 nM	21.3 nM	17.2 nM			
AGUACUGACGCGUCGGUGUUAGUACAAUAAGCUUGUGAAACAUGAGGAUCACCCAUGUCCUCAUAAGCUCGUCUUAU [salish99_TOv2_r3_082] (puzzle: Sensor v3, turn-off variant 2)				15.9 nM	720 nM	15.4 nM
AGCUGUGGCCGAGGAUAUACACAUGAGGAUCACCCAUGUAGGCGCGGAUACGCGCUAAAAUAAAUGUAGAAGGCGGUCUCAGCA [Eli eng2 - 055] (Eterna round: R96, puzzle: Exclusion NG 2)	7.06 nM	11.8 nM	5 nM			
UAUAUGUCAGGAUAUCGAUUAGAACAGAAUUUAACAAUAGUCGAGAAGGGACAUGAGGAUCACCCAUGUUCAAC [JR_Ex4_Sub021] (Eterna round: R97, puzzle: Exclusion 4)	41.7 nM	20.5 nM				
ACAUGUGUUGUAGGAUAUAGGAUACAUGAGGAUCACCCAUGUGGAUUCAUGUCAAAGGAAACGUCCUAGAAGGACGACAACAUG [Ex NG2 #23] (Eterna round: R96, puzzle: Exclusion NG 2)	176 nM	84.3 nM	53.2 nM			
ACAUGAGGAUCACCCAUGUCAGGUGGGUCCUCUCCGGCUGUUGAGGAUAUAGUCCGGUAUCCGCGCUAGAAGGUGAGGGCUGGC [Aenatbe mod 16] (Eterna round: R96, puzzle: Exclusion NG 3)	42.8 nM	38.4 nM	23.8 nM			
UUUUAACAUGAGGAUCACCCAUGUGAGGAUAUCGAAAUUUAUAUUUAUAUUAAUUAAACGAGAAGGCACAUUUU [JMF 83] (puzzle: Exclusion 1)					74 nM	
GUCGCGUGGGUGUGGGAGGACAUGAGGAUCACCCAUGUGACUACCAAGCUUUUUGCUCCUCUUAGGUCCAUGGGAAG [Random] (Eterna round: R97, puzzle: Sensor, turn-off variant 1)	67 nM	109 nM				
GUCGCCAGUGUCAGGAUAUGAUGGCCUCGACGCCGUUAGAAGGGACAUGAGGAUCACCCAUGUAACAAGCGACG [Eternabot (Original) Solution 42] (Eterna round: R97, puzzle: Brourd's mod of Exclusion 4)	31.3 nM	27.8 nM				
UGUAGUUCAGGAUAUGAUGUUAAAUACAUGAGGAUCACCCAUGUAGAUCCUGAAUUUACAUCAGAAGGGAAUAUUU [JL-ex5-4.56 Brourd mod] (Eterna round: R97, puzzle: Exclusion 5)	22.8 nM	17.1 nM				
UUUAAUUGUCACAUGGGUGACAUGAGGAUCACCCAUGUCACAAGCUUUUUGCUCGUCUUAUAAUUAACCCAUGUGAC [Stov1/12-A1] (Eterna round: R97, puzzle: Sensor, turn-off variant 1)	13.4 nM	13.7 nM				
GCGCGCUAAGGAUAUACAUGAGGAUCACCCAUGUGCGCGCAAAAGCGCCGCGCGCGCGGUAGAAGGUAGGCAAA [Extraordinary-Exclusion 3] (Eterna round: R97, puzzle: Exclusion 3)	16 nM	11.4 nM				
GCCCUCGCUGAGGAUAUUAUCUGGCUCGACCGAUAAGAAGGCAGUACAUGAGGAUCACCCAUGUGGUUCGUUCG [Polaris46] (Eterna round: R97, puzzle: Exclusion 6)	97.9 nM	41 nM				
ACAGUACUGCAAGGAUAUCGUUCUAGUUUAUUACGAGAAGGUGCUUUAGUUAUUUCUUUGUGUUGACAUGAGGAUCACCCAUGU [JR_ExcNG1_Sub055] (Eterna round: R96, puzzle: Exclusion NG 1)	18.9 nM	26.4 nM	17.9 nM			
AUGUUACAUGAGGAUCACCCAUGUGAGGAUAUGAGUCAGUCACGGUGACGUGGCUGACUCAGAAGGCACUAUGG [JL-ex1-4.39 salish99 mod] (Eterna round: R97, puzzle: Exclusion 1)	146 nM	279 nM				
UGUGCGUAUGUGAGGAUAUGCUGGUCCUUGGAUCGGCAGAAGGCACAUGAGGAUCACCCAUGUGGUGUCGUUCG [salish99_Bmod_ex4_097] (puzzle: Brourd's mod of Exclusion 4)					206 nM	

Sequence	apparent KD of MS2 coat protein (input ligand: FMN 200 uM)	apparent KD of MS2 coat protein (input ligand: none)	apparent KD of MS2 coat protein [1]	apparent KD of MS2 coat protein (Eterna round: R95, input ligand: FMN 200 uM)	apparent KD of MS2 coat protein [2]	apparent KD of MS2 coat protein (Eterna round: R95, input ligand: none)
ACUGGUCGAGGAUAUACAUGAGGAUCACCCAUGUGGUCACGUGACGAUAGUCACGAAUGUAGAAGGCGACCAGU [E3/3-A2] (Eterna round: R97, puzzle: Exclusion 3)	15.7 nM	123 nM				
GGCUAGUCAGGAUAUACGAACAUGUCAAAAGACGUGAAGGGACAUGAGGAUCACCCAUGUAGAAGGGACUAGCA [salish99-ex2-12] (Eterna round: R96, puzzle: Exclusion 2)	187 nM	28 nM	21 nM			
AAGAAAGGUGACAUGGGUGACAUGAGGAUCACCCAUGUUACAAGCUUGUUGCUCGUCUUAUAAUUAACCCAUGUCAU [LRO Sensor-off var1-19 mod of Stov1-13-A1 by Brourd] (Eterna round: R97, puzzle: Sensor, turn-off variant 1)	55.3 nM	64.6 nM				
GUCAUCACACAUGGGAUCAACAUGAGGAUCACCCAUGUUGCCAAGUUUUUUGCACGUCUUAUAAUACGUUUGAUGAG [Mod-Jxe] (Eterna round: R97, puzzle: Sensor, turn-off variant 1)	31.7 nM	29.9 nM				
CUCUCUCGAGGAUAUACCGUAUGGUGGAAUCUCCUCGGAAGACAUGAGGAUCACCCAUGUAGAAGGCGAGAUGG [Eternabot (L2) Solution 64] (Eterna round: R97, puzzle: Exclusion 2)	144 nM	31.3 nM				
CAGGAGUCAGGAUAUCGUUACCACGGAGUUGCUGUGCAUAACGAGAAGGGACAUGAGGAUCACCCAUGUGCCUC [Eternabot (L1) Solution 98] (Eterna round: R97, puzzle: Exclusion 4)	57.6 nM	22.3 nM				
GUUAAACAUGAGGAUCACCCAUGUAAGGAUAUGCUGCGGUCGAGAUGAAGUGAAUGCAGCAGAAGGUACAAUUG [Mat - Mod of JL D53] (puzzle: Exclusion 1)					148 nM	
GGGUUACAUGAGGAUCACCCAUGUGAGGAUAUGAUACUAUGUACUUCGGUACAUAGUAUCAGAAGGCACAUAAA [Ex1-3: 19] (puzzle: Exclusion 1)					121 nM	
AGUUAUUCAGGAUAUGGUGUGUUAUACAUGAGGAUCACCCAUGUGGAUCCUGGUUAGGCCUCAGAAGGGAAUGUUA [salish99_ex5_r4_126] (Eterna round: R97, puzzle: Exclusion 5)	412 nM	435 nM				
GUAUACGAUGAGGAUAUAUGAUAUCAAAGCAUCAUAGAAGGCAUCACAUGAGGAUCACCCAUGUGAUCUUCUUG [Mat - Exclusion 6 - JL Mod - D33] (Eterna round: R97, puzzle: Exclusion 6)	141 nM	31.3 nM				
GGUGAGCUAGGAUAUGCUUUGGGCUCGCUUUCCUUCGUUUUACUUGAGGAUCACCCAAGUAGAAGGAGCUUGCC [salish99_ex2_r4_036] (Eterna round: R97, puzzle: Exclusion 2)	13.9 nM	12.2 nM				
GCUCUCUCUCUGUCUCUCUACAUGAGGAUCACCCAUGUGUCUCGCUCGCUCUCUCUCUCUCUUUCUCUCUCUCUCUU [Default title] (Eterna round: R97, puzzle: Sensor, turn-off variant 1)	104 nM	135 nM				
AGCUAGGCAGGAUAUACAUGAGGAUCACCCAUGUAAAUUUUUCGUUUAACUUGAAUGUGUAGAAGGGCCAUAAA [Ex3 #51] (Eterna round: R97, puzzle: Exclusion 3)	23.9 nM	22.4 nM				
AGCGCUUACGUAGGAUAUGCAUGAGGAUCACCCAUGCAACCACAUUUAACAUGAGGAUCACCCAUGUAGAAGGACGGGUGCGCA [pwkr exNG2 2xF5 1xFMN.2] (Eterna round: R96, puzzle: Exclusion NG 2)	67.8 nM	27.9 nM	20.4 nM			
ACGCGAGUAGGAGGAUAUUCCGAGCGCGGGCCGGGAGAAGGCCUAGAUCGUGAACAUGAGGAUCACCCAUGUGGGAUGAUCUAA [Ededaranri] (Eterna round: R96, puzzle: Exclusion NG 1)	8.23 nM	313 nM	94.9 nM			
GGGCAAUUAGGAUAUACAUGAGGAUCACCCAUGUGGAAGCCCGGACAGGUAAUCCACUGUAGAAGGGAUUGCCA [Anareor] (puzzle: Exclusion 3)					10.7 nM	
UCUCAGCCUAAGGAUAUGAGCCGAACCAAAAGUUCAGAAGGUAGGACAUGAGGAUCACCCAUGUGAGCCUACAC [Eternabot (Original) Solution 39] (Eterna round: R97, puzzle: Exclusion 6)	34.3 nM	21.3 nM				
